Reference: US20200123233A1

Assays:
[1] = target: Rabies virus glycoprotein G, strain CVS-11 (Challenge Virus Standard-11, ATCC VR 959) (Rabies virus, strain CVS-11); experiment: cell-based or functional assay
[2] = target: Rabies virus glycoprotein G, Challenge Virus Standard (CVS)-11 strain (Rabies virus, strain CVS-11 (genotype 1 Lyssavirus)) (UniProt O92284); experiment: cell-based or functional assay
Chain of Rabies virus glycoprotein G, Challenge Virus Standard (CVS)-11 strain (Rabies virus, strain CVS-11 (genotype 1 Lyssavirus)) (O92284 20-524 limits assumed): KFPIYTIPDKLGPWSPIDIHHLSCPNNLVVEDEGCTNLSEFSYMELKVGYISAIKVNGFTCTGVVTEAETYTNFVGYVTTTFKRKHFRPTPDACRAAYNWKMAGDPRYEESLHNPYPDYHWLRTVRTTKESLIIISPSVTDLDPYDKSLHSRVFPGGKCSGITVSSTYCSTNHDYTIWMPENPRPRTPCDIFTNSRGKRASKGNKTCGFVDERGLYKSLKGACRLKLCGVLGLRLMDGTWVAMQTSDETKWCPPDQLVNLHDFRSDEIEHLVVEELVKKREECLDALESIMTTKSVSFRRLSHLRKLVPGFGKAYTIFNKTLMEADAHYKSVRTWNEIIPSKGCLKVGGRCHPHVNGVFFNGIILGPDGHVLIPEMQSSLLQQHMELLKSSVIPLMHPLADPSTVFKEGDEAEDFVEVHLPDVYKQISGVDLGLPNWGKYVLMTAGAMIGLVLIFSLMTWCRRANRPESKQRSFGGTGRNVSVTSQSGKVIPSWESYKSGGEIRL

Row | Binder | CVS neutralizing antibody titre (RFFIT): IU/mg [1] [IU/mg] | CVS neutralizing antibody titre (RFFIT): IU/ml [1] [IU/ml] | CVS neutralizing antibody titre (RFFIT): IU/nM [1] [IU/nM] | CVS neutralizing antibody titre (RFFIT): nM IC50 [1] [nM] | Potency (IU/nM) increase versus monovalent [1] [fold] | CVS-11 neutralizing antibody titer (RFFIT), IU/mg [2] [IU/mg] | CVS-11 neutralizing antibody titer (RFFIT), IU/ml [2] [IU/ml] | CVS-11 neutralizing antibody titer (RFFIT), IU/µM [2] [IU/µM] | CVS-11 neutralizing antibody titer (RFFIT), nM IC50 [2] [nM]
1 | 214-E8 25GS 212-C12 (VHH) EVQLVESGGGSVQAGGSLRLSCAASGGTFNPYVMAWFRQAPGNEREFVARIRWSGGDAYYDDSVKGRFAITRDAAKNTVHLQMNSLKPEDTAVYYCAAATYGYGSYTYGGSYDLWGQGTQVTVSSGGGGSGGGGSGGGGSGGGGSGGGGSEVQLVESGGGLVQPGGSLRLSCAASGFTFGSSDMSWVRQAPGKGPEWVSGINSGGGRTLYADSVKGRFTISRDNAKNTLYLQMNSLKSEDTAVYYCATDLYGSSWYTDYWSQGTQVTVSS | 573 | 70.5 | 1.6 | 1.94 | 1.5 |  |  |  | 
2 | 213-E6 25GS 214-E8 (VHH) EVQLVESGGGLVQAGASLRLSCAASGSTLSRYGVGWFRQAPGKERELVASVDWSGSRTYYADSVKGRFTISRDNAKNTGYLQMNSLKPDDTAVYYCAADSSVVPGIEKYDDWGLGTQVTVSSGGGGSGGGGSGGGGSGGGGSGGGGSEVQLVESGGGSVQAGGSLRLSCAASGGTFNPYVMAWFRQAPGNEREFVARIRWSGGDAYYDDSVKGRFAITRDAAKNTVHLQMNSLKPEDTAVYYCAAATYGYGSYTYGGSYDLWGQGTQVTVSS | 657 | 46 | 1.84 | 1.68 | 2.3 |  |  |  | 
3 | 213-E6 25GS 213-E6 (VHH) EVQLVESGGGLVQAGASLRLSCAASGSTLSRYGVGWFRQAPGKERELVASVDWSGSRTYYADSVKGRFTISRDNAKNTGYLQMNSLKPDDTAVYYCAADSSVVPGIEKYDDWGLGTQVTVSSGGGGSGGGGSGGGGSGGGGSGGGGSEVQLVESGGGLVQAGASLRLSCAASGSTLSRYGVGWFRQAPGKERELVASVDWSGSRTYYADSVKGRFTISRDNAKNTGYLQMNSLKPDDTAVYYCAADSSVVPGIEKYDDWGLGTQVTVSS | 300 | 21 | 8.29 | 3.76 | 6.4 |  |  |  | 
4 | 214-E8 15GS 213-H7 (VHH) EVQLVESGGGSVQAGGSLRLSCAASGGTFNPYVMAWFRQAPGNEREFVARIRWSGGDAYYDDSVKGRFAITRDAAKNTVHLQMNSLKPEDTAVYYCAAATYGYGSYTYGGSYDLWGQGTQVTVSSGGGGSGGGGSGGGGSEVQLVESGGGLVQAGGSLRLSCAASGRTLSSYRMGWFRQAPGKEREFISTISWNGRSTYYADSVKGRFIFSEDNAKNTVYLQMNSLKPEDTAVYYCAAALIGGYYSDVDAWSYWGPGTQVTVSS | 8220 | 1890 | 230 | 0.14 | 605 |  |  |  | 
5 | LG212B12 (VHH) VHH: EVQLVESGGGLVQPGGSLRLSCAASGFTFGNYDMSWVRQAPGKGPEWVSGINTGGSTLYADSVKGRFTISRDNAKNTLYLQMNSLKSEDTAVYYCAKDLYGSTWYTDYWSQGTQVTVSS |  |  |  |  |  | 20 | 31 | 0.3 | 101
6 | 213-H7 15GS 213-H7 (VHH) EVQLVESGGGLVQAGGSLRLSCAASGRTLSSYRMGWFRQAPGKEREFISTISWNGRSTYYADSVKGRFIFSEDNAKNTVYLQMNSLKPEDTAVYYCAAALIGGYYSDVDAWSYWGPGTQVTVSSGGGGSGGGGSGGGGSEVQLVESGGGLVQAGGSLRLSCAASGRTLSSYRMGWFRQAPGKEREFISTISWNGRSTYYADSVKGRFIFSEDNAKNTVYLQMNSLKPEDTAVYYCAAALIGGYYSDVDAWSYWGPGTQVTVSS | 549 | 412 | 15.4 | 2.09 | 34.2 |  |  |  | 
7 | 214-E8 15GS 212-C12 (VHH) EVQLVESGGGSVQAGGSLRLSCAASGGTFNPYVMAWFRQAPGNEREFVARIRWSGGDAYYDDSVKGRFAITRDAAKNTVHLQMNSLKPEDTAVYYCAAATYGYGSYTYGGSYDLWGQGTQVTVSSGGGGSGGGGSGGGGSEVQLVESGGGLVQPGGSLRLSCAASGFTFGSSDMSWVRQAPGKGPEWVSGINSGGGRTLYADSVKGRFTISRDNAKNTLYLQMNSLKSEDTAVYYCATDLYGSSWYTDYWSQGTQVTVSS | 322 | 998 | 8.7 | 3.69 | 8 |  |  |  | 
8 | 213-E6 5GS 212-C12 (VHH) EVQLVESGGGLVQAGASLRLSCAASGSTLSRYGVGWFRQAPGKERELVASVDWSGSRTYYADSVKGRFTISRDNAKNTGYLQMNSLKPDDTAVYYCAADSSVVPGIEKYDDWGLGTQVTVSSGGGGSEVQLVESGGGLVQPGGSLRLSCAASGFTFGSSDMSWVRQAPGKGPEWVSGINSGGGRTLYADSVKGRFTISRDNAKNTLYLQMNSLKSEDTAVYYCATDLYGSSWYTDYWSQGTQVTVSS | 385 | 385 | 10 | 3.21 | 6.3 |  |  |  | 
9 | 213-E6 25GS 212-C12 (VHH) EVQLVESGGGLVQAGASLRLSCAASGSTLSRYGVGWFRQAPGKERELVASVDWSGSRTYYADSVKGRFTISRDNAKNTGYLQMNSLKPDDTAVYYCAADSSVVPGIEKYDDWGLGTQVTVSSGGGGSGGGGSGGGGSGGGGSGGGGSEVQLVESGGGLVQPGGSLRLSCAASGFTFGSSDMSWVRQAPGKGPEWVSGINSGGGRTLYADSVKGRFTISRDNAKNTLYLQMNSLKSEDTAVYYCATDLYGSSWYTDYWSQGTQVTVSS | 248 | 1290 | 6.7 | 4.79 | 4.2 |  |  |  | 
10 | 214-E8 5GS 212-C12 (VHH) EVQLVESGGGSVQAGGSLRLSCAASGGTFNPYVMAWFRQAPGNEREFVARIRWSGGDAYYDDSVKGRFAITRDAAKNTVHLQMNSLKPEDTAVYYCAAATYGYGSYTYGGSYDLWGQGTQVTVSSGGGGSEVQLVESGGGLVQPGGSLRLSCAASGFTFGSSDMSWVRQAPGKGPEWVSGINSGGGRTLYADSVKGRFTISRDNAKNTLYLQMNSLKSEDTAVYYCATDLYGSSWYTDYWSQGTQVTVSS | 214 | 171 | 5.68 | 5.65 | 5.2 |  |  |  | 
11 | LG212C12 (VHH) VHH: EVQLVESGGGLVQPGGSLRLSCAASGFTFGSSDMSWVRQAPGKGPEWVSGINSGGGRTLYADSVKGRFTISRDNAKNTLYLQMNSLKSEDTAVYYCATDLYGSSWYTDYWSQGTQVTVSS |  |  |  |  |  | 308 | 394 | 4.6 | 7.55
12 | NB6-18GS-NB6 (VHH) EVQLVESGGGLVQAGGSLRLSCAASGPTFSADTMGWFRQAPGKEREFVATIPWSGGIAYYSDSVKGRFTMSRDNAKNTVDLQMNSLKPEDTALYYCAGSSRIYIYSDSLSERSYDYWGQGTQVTVSSGGGGSGGGGSGGGGGGGSEVQLVESGGGLVQAGGSLRLSCAASGPTFSADTMGWFRQAPGKEREFVATIPWSGGIAYYSDSVKGRFTMSRDNAKNTVDLQMNSLKPEDTALYYCAGSSRIYIYSDSLSERSYDYWGQGTQVTVSSAAAEQKLISEEDLNGAAHHHHHH | < 2.38 | < 0.5 | < 0.07 | > 725 |  |  |  |  | 
13 | LG212F6 (VHH) VHH: EVQLVESGGGLVQPGGSLRLSCAASGFTFGSYDMSWVRQAPGKGSEWVSHINTGGGSTTYADSVKGRFTISRDNAKNTLYLQMSSLKPEDTAVYYCATGLYGGSTDDYWGQGTQVTVSS |  |  |  |  |  | 114 | 122 | 1.71 | 17.7
14 | 214-F8 15GS 214-F8 (VHH) EVQLVESGGDLVQAGGSLRLSCVASGSTYSINAMGWYRQAPGKLRELVAAFRTGGSTDYADSVKGRFTISRDTAKNTVYLQMNSLKPEDTAVYYCNAEVIYYPYDYWGQGTQVTVSSGGGGSGGGGSGGGGSEVQLVESGGDLVQAGGSLRLSCVASGSTYSINAMGWYRQAPGKLRELVAAFRTGGSTDYADSVKGRFTISRDTAKNTVYLQMNSLKPEDTAVYYCNAEVIYYPYDYWGQGTQVTVSS | 650 | 13 | 17.2 | 1.79 | 63.7 |  |  |  | 
15 | 213-E6 15GS 213-H7 (VHH) EVQLVESGGGLVQAGASLRLSCAASGSTLSRYGVGWFRQAPGKERELVASVDWSGSRTYYADSVKGRFTISRDNAKNTGYLQMNSLKPDDTAVYYCAADSSVVPGIEKYDDWGLGTQVTVSSGGGGSGGGGSGGGGSEVQLVESGGGLVQAGGSLRLSCAASGRTLSSYRMGWFRQAPGKEREFISTISWNGRSTYYADSVKGRFIFSEDNAKNTVYLQMNSLKPEDTAVYYCAAALIGGYYSDVDAWSYWGPGTQVTVSS | 4250 | 3760 | 93.7 | 0.26 | 107 |  |  |  | 
